# Experimental data from IntAct's records for PubMed 9502724.
# B1: Mothers against decapentaplegic homolog (Drosophila melanogaster (Fruit fly)), O62609 (parent)
# chain: MGGGSGACPPAHMYGAVAPQDIIVRDMVQMPPPPSNAPTSADACLSIVHSLMCHRQGGESEGFAKRAIESLVKKLKEKRDELDSLITAITTNGAHPSKCVTIQRTLDGRLQVAGRKGFPHVIYARIWRWPDLHKNELKHVKYCAFAFDLKCDSVCVNPYHYERVVSPGIDLSGLSLQSGPSRLVKDEYSAGPLVGSMDIDGNDIGTIQHHPTQMVGPGGYGYPQGPSEYVGDANPMSAMFPTGRTIPKIEPQDGVAGSRGSWMVPPPPRLGQPPQQQQQQPQQQTPQPTQQQQAQSQAAAHSLPVPHGMPGMPGPMNPGPVMAPPPPPQQAQNPQGNGVHHTQANSPTDPASALAMQQQQQQQQQQQQQQQQQQQQSGGVPNGSVNAGGGAAAGGQYYGQPPPVSQMQGAGGGGTSVAPSVHAQQNGYVSQPGSAGSAPVGGGGVFGTAQPTPQQPQQPPTGVQANTGSAGAQAGAGGGAAGTWTGPNTLTYTQSMQPPDPRSLPGGFWNSSLSGDLGSPQQTPPQQQQQQQQPRLLSRQPPPEYWCSIAYFELDTQVGETFKVPSAKPNVIIDGYVDPSGGNRFCLGALSNVHRTEQSERARLHIGKGVQLDLRGEGDVWLRCLSDNSVFVQSYYLDREAGRTPGDAVHKIYPAACIKVFDLRQCHQQMHSLATNAQAAAAAQAAAVAGVANQQMGGGGRSMTAAAGIGVDDLRRLCILRLSFVKGWGPDYPRQSIKETPCWIEVHLHRALQLLDEVLHAMPIDGPRAAA
# B2: Protein mothers against dpp (Drosophila melanogaster (Fruit fly)), P42003 (parent)
# chain: MDTDDVESNTSSAMSTLGSLFSFTSPAVKKLLGWKQGDEEEKWAEKAVDSLVKKLKKRKGAIEELERALSCPGQPSKCVTIPRSLDGRLQVSHRKGLPHVIYCRVWRWPDLQSHHELKPLELCQYPFSAKQKEVCINPYHYKRVESPVLPPVLVPRHSEFAPGHSMLQFNHVAEPSMPHNVSYSNSGFNSHSLSTSNTSVGSPSSVNSNPNSPYDSLAGTPPPAYSPSEDGNSNNPNDGGQLLDAQMGDVAQVSYSEPAFWASIAYYELNCRVGEVFHCNNNSVIVDGFTNPSNNSDRCCLGQLSNVNRNSTIENTRRHIGKGVHLYYVTGEVYAECLSDSAIFVQSRNCNYHHGFHPSTVCKIPPGCSLKIFNNQEFAQLLSQSVNNGFEAVYELTKMCTIRMSFVKGWGAEYHRQDVTSTPCWIEIHLHGPLQWLDKVLTQMGSPHNAISSVS
# Variants of: B1
# Settings: with mad_drome Mad, P42003
row,Variant,effect of a mutation on the interaction
1,C99S,with no effect
2,G727D,disrupting interaction strength

# Variants of: B2
# Settings: with Med, O62609
row,Variant,effect of a mutation on the interaction
1,S452A;S453A;S455A,disrupting interaction strength
